Blank lines part the entries; values can stand above or below the substance they belong to.
What was measured:
[1] = biological target: Fc-tagged secreted perlecan DII (sDII), as purified in Fig. 1D; test: in vitro saturation binding analysis; sDII 10.0 pM with increasing LDL (supplementary Fig. 1); further conditions not shown
[2] = biological target: sialidase C-treated Fc-tagged WT perlecan DII; test: pull-down; Fc-tagged proteins on protein-A agarose incubated with human LDL (10 μg in Fig. 1E/F with 500 ng protein; 1.5 μg in Fig. 5D); 20 mM HEPES pH 6.0, 10 mM NaCl, 1% BSA, room temperature 1 h; blot with anti-LDL or anti-ApoB antibody
[3] = biological target: Fc-tagged WT perlecan DII from WT CHO cells (UniProt P98160); test: radioligand binding; stable WT CHO cell lines expressing Fc or Fc-tagged proteins, binding of [I^125]labeled LDL (supplementary Fig. 3)
[4] = biological target: Fc-tagged perlecan DI from WT CHO cells (UniProt P98160); test: as above
[5] = biological target: Fc-tagged perlecan DI+II from WT CHO cells (UniProt P98160); test: as above
[6] = biological target: Fc-tagged WT perlecan DII from WT CHO cells (UniProt P98160); test: pull-down; Fc-tagged proteins on protein-A agarose incubated with human ApoB-100 (5 μg); 20 mM HEPES pH 6.0, 10 mM NaCl, 1% BSA ('optimal binding condition'), room temperature 1 h; blot with anti-ApoB antibody, quantified from three experiments
[7] = biological target: Fc-tagged perlecan DI+II from WT CHO cells (UniProt P98160); test: as above

Sequence of human ApoB-100 (P04114 28-4563): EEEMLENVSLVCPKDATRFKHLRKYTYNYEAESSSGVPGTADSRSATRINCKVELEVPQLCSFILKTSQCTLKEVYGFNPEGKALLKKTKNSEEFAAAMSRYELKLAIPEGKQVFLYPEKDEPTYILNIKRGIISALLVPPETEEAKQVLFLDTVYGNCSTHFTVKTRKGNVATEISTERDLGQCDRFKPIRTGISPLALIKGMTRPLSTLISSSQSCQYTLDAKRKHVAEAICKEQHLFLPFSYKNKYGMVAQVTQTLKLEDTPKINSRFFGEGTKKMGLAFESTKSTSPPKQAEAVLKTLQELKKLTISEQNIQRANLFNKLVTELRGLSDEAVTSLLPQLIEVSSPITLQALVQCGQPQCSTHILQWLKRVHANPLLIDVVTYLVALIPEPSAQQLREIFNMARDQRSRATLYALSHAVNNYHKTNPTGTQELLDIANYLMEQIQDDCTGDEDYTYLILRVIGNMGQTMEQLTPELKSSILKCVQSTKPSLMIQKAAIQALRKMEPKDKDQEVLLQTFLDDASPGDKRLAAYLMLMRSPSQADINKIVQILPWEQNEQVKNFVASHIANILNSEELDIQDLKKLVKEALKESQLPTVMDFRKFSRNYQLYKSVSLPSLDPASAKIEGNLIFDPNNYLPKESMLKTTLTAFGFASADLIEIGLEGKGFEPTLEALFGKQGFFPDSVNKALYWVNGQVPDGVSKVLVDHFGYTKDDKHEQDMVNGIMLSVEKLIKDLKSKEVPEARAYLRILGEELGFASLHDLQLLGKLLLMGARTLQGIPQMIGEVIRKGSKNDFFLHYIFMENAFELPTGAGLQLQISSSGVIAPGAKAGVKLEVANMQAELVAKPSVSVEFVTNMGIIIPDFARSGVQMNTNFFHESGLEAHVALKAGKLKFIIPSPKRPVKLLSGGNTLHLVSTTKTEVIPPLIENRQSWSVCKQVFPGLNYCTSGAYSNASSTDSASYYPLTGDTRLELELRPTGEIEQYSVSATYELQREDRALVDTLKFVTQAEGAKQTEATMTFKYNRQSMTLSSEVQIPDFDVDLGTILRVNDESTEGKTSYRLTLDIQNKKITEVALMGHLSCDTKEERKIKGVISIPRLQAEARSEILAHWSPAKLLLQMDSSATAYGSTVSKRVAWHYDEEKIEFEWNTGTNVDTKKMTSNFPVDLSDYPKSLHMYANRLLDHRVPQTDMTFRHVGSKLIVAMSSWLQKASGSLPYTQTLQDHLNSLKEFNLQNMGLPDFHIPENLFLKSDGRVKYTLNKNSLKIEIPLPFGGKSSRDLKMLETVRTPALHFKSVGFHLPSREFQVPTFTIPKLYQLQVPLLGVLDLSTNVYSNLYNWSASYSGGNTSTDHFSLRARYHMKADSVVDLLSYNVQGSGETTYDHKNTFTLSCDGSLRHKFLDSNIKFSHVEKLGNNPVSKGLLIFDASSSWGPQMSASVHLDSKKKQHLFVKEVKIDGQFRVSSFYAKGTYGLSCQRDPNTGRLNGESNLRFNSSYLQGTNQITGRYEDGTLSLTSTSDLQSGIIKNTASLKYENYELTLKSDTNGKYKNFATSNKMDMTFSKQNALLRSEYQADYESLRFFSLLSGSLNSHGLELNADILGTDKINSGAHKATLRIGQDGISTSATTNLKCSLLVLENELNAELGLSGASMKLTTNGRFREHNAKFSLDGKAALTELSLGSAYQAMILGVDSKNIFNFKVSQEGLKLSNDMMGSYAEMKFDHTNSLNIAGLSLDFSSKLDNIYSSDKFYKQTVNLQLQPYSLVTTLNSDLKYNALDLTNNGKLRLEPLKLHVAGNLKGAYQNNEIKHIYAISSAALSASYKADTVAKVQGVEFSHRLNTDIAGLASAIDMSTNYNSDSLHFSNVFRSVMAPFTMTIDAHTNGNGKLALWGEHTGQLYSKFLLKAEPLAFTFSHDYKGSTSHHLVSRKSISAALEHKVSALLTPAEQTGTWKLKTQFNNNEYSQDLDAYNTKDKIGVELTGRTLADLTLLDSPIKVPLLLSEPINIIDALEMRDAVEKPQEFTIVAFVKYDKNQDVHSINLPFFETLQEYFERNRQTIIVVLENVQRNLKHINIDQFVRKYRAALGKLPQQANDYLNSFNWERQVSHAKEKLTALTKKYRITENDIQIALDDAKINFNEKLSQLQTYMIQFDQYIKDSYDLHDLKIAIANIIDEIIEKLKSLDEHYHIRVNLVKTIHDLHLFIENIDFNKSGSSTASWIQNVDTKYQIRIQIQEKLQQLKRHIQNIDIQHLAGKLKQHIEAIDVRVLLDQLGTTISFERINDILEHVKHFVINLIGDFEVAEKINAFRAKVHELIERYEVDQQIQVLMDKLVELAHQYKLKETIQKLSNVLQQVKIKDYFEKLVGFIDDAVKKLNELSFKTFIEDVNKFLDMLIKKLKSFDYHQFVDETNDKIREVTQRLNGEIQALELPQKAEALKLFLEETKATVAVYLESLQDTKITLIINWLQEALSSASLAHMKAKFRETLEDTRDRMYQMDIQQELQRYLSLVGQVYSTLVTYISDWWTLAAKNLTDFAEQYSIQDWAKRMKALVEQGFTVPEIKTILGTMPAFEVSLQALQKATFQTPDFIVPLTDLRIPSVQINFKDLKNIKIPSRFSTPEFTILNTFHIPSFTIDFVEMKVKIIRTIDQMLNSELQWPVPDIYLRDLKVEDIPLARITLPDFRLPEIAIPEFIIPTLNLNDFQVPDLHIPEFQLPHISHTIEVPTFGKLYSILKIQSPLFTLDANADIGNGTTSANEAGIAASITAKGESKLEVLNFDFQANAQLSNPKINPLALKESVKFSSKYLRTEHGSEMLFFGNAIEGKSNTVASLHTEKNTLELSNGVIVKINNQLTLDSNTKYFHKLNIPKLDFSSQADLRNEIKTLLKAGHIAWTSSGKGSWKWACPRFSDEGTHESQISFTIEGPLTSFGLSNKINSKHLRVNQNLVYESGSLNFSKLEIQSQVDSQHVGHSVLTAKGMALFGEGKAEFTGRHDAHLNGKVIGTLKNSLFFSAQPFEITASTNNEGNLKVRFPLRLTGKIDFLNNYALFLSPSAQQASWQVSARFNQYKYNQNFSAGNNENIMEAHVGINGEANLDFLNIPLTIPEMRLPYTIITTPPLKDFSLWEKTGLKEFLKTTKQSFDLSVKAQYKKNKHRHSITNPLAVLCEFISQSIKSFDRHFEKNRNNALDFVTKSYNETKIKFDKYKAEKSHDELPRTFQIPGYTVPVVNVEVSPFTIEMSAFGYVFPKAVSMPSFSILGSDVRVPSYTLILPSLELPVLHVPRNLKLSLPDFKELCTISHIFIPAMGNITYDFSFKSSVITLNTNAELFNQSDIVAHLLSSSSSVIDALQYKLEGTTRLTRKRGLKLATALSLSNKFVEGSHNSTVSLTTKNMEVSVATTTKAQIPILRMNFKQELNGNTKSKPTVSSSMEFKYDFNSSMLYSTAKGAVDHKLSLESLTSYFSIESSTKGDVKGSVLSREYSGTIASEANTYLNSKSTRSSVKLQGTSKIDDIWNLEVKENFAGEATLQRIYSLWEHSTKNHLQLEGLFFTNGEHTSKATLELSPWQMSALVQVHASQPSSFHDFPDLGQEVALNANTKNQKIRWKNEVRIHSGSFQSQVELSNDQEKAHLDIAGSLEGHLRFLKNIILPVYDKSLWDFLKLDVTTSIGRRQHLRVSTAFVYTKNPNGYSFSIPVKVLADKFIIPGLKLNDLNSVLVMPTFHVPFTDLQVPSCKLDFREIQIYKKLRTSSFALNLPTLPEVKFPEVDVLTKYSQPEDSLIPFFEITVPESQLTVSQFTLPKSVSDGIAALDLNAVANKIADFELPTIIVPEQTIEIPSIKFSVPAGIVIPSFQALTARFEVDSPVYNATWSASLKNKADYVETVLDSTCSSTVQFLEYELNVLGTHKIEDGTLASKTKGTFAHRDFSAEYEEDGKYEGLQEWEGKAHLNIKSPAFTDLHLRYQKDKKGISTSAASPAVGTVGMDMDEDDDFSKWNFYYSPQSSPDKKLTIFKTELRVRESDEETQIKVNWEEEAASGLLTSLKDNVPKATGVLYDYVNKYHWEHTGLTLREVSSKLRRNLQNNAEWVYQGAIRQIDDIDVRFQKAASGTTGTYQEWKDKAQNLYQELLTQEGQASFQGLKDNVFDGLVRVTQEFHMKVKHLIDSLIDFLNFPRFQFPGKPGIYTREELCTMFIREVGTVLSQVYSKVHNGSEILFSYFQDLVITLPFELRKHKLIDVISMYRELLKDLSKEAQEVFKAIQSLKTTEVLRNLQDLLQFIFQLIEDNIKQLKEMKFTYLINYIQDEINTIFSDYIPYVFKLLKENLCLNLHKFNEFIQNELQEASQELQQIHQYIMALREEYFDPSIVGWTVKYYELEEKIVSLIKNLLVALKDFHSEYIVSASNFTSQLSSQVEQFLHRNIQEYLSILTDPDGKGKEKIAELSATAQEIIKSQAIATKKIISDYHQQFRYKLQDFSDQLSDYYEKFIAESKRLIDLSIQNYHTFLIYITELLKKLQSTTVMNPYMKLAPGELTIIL

LDL concentration at which binding to sDII (10.0 pM) became saturated [1]: 16.3 pM
percent reduction of binding against mock-treated WT DII [2]: 50%
Substance: human LDL (complex)

percent increase of [I^125]LDL binding to cells [3]: 31%
percent increase of [I^125]LDL binding to cells [4]: 26%
percent increase of [I^125]LDL binding to cells [5]: 43%
Substance: [I^125]labeled LDL (complex)

percent increase of binding over WT DI [6]: 24%
percent increase of binding over DI alone [7]: 90%
percent increase of binding over WT DII [7]: 53%
Substance: human ApoB-100 (from UniProt P04114 28-4563) (natural protein)

Source: paper PMC4306681
